The nanobody polyreactivity screen of Harvey et al. (2022)

Assay: yeast display, Sf9 membrane polyspecificity reagent, FACS + sequencing; frameworks hold sequencing errors
Procedure, shortened: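 A synthetic nanobody library was expressed on Saccharomyces cerevisiae BJ5465 by galactose induction for 36–48 hours. The library was stained for 1 hour at 4 °C with 10% biotinylated, detergent-solubilized Sf9 membrane reagent and enriched with streptavidin microbeads before FACS. Low and high (top ~1%) gates were set on anti-HA fluorescence for expression and streptavidin fluorescence for reagent binding, and each polyreactivity label reflects the gate of origin.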

Row | Sequence | polyreactivity (PSR sort gate)
1 | QVQLQDSGSGLVQAGGSLRLSCAASGAIFPAYLMVSYRQAPGKERELVAGISYGSITYCADSVKGRFNISRDNAKNTVYLQMNSLKPEDTAVYYCAVWRPGGDEYYYWGQGTQVTVSS | low polyreactivity
2 | QVQLQDTGGGLVQAGGSPRLSCAASDNIFPDSVMCWYRQAPGKERELVATIGFGATTNYADSVKGRFTISRDNAKITVYLQMNSLKPEDSAVYYCAADPLNYEYFCYWGQGTQVTVRS | low polyreactivity
3 | QVQLQECGGGLVQAGGSLRLSCAASGHIFDADIMGWYRQAPGKERELVASVTDGGSTNYADSVKGRFTISRDNAKNTVYLQMNSLKPEATAVFYCAAIVYPDILTYFDYDYDYFYWGQGTQVTVGS | low polyreactivity
4 | QVQLQECGGGLVQAGGSLRLTCAASGNIFHADIMGWYRQAPGKERELVARVTDGGSTNYADSVKGRLTISRDNAKNTVYLQMNSLKPEETAVYYCAAIVYPVILTYFDYDYDYFYWGQGTQVTVGS | low polyreactivity
5 | QVQLQEIGGGLVQAGRSLRLSCAASGSISRLDYMGWYRQASGKERELVAAIDNGSTTYYADSVKGRLTISRDNAKYTVYLQMNSLKPEDTAVYFCAAVRGRGGTHAYWGQGTQVTVSG | low polyreactivity
6 | QVQLQERGGGLVQAGGSLRLGCEASGNISDDGYMGWYRQAPGKEREFVAAIAAGSNTNYADSVKGRFTISRDNAKNTVYLQMNSLKPVETAVFYCAVASYARVQYLYWGQGTQVTVYS | low polyreactivity
7 | QVQLQERGGGLVQAGGSLRLSCAASCTIFRFRYMGGHRQAPGKERELVAGINGGTTTYYADSEIGRFTMSRDNAKNTLYLQMNSLKPDDTAVYNCAAGDSRLTYYDYWGQGTQVTVSS | low polyreactivity
8 | QVQLQERGGGLVQAGGSLRLSCAASGSIFHYTQMGWYLQAPGKEREFVAAITDGANTNYADSVKGRFTISRDNAKNTVNLQMNSLIPEDTAVFYCATDYGYTDRVTSGFDYWGQGTQVTVSS | low polyreactivity
9 | QVQLQERGGGLVQAGGSLRQRCAASRNISASSDLGWYHQAPGKEREFVASITSGGTTYYADSVKGRFTISRDNAKNTVYLQMNSLKPEDTAVYYCAVGDPADAEFGYWGKGTQVTVSS | low polyreactivity
10 | QVQLQESAGARQPAPELRGERIYFWLLLMCWYRQAPGEERELVAGINDGASTNYADSVKGRFTISRDNARNTVYLKMNSLKPGDTAVYYCAVWQPVLIWFYYWGQGTHVTVSS | high polyreactivity
11 | QVQLQESAGGLEQAGGSLRRICSARCNINSDASMGSYRQAPGKQREHAASTTKGSRTHDAESVKGRLTIRDNAKNTVYLQMNSLKPDDTAVCYSAVTYPYWGDYTYWGQGTQVTVSS | low polyreactivity
12 | QVQLQESAVLVQAGGSLRLSCPASGSISGRNVMGRYRQAQAKQREFVASITDGSSTNYADSVKGRFTISRDNAKNTVYLQMNSLNPKDTAVYYCAAYAQRAKSFGYWGRGTQVTVSS | low polyreactivity
13 | QVQLQESDGGLVQAGGSLRLSCAASGSISPQYYMGWYRQAPGKEREFVAISKGTTTYYADSVKGRLTISRVNAKNTVYLQMNSLKPEDTAVYCCAAVRWLQKVHAYWDQGTQVTVSS | low polyreactivity
14 | QVQLQESGAGLVQAGGSLRLSCAASGSIIHLHIMCWYRQAPRKERESVAAISYGTSTYYADSVKGRFTICRDNAKNTVYLQMNSPKPDDTAVYYCAALFLVSKHHHYWGEGTQVTVSS | low polyreactivity
15 | QVQLQESGDGLVQADGSLRLSCAASGYISGYYYMGWYRQQPGKERELVAGIDAFGSSTNYADCVKGRFTISRDNGKNTVYLQMISPKPDDTAVYYCAAVYDDWDYHWYWGQGTQVTVSS | low polyreactivity
16 | QVQLQESGDGLVQAVGSLRLSCAASGYISGYYYMGWYRQAPGKERELVAGIDAFGSSTNYADCVKGRFTISRDNATHTVYLQMNSLKPEDTAVYYCAARPDGDRLFSYWGQGTQVTVSS | low polyreactivity
17 | QVQLQESGGCVVQAGGSLRLSCAASGTISDSGLMGWYRQAPGKERELVAGISSGGITNYADSVKGRFTISRDNAKNTVYLQMNSLKPEDTAVYWGQGTQVTVSS | low polyreactivity
18 | QVQLQESGGDLEQAGGSLRLSCTAIGTISDVRFMGWYRQAPGKERELVATISYVTITYYADSVKGRFTISRDSEKHRVSAHDEPETGRYRGVLLRYYWGLGTQVTVSS | low polyreactivity
19 | QVQLQESGGGLLQAGGSLRLSCAASGTIFRFRYMGWHRQAPGKERELVAGINGGTTTYYADSVIGRFTISRDNAKNTVYLQMNSLKPDDTAVYNCAAGASRLTYYDYWGQGTQVTVSS | low polyreactivity
20 | QVQLQESGGGLLQECGSQRLSCAASGSISEGQDMGWYRRAPGKEREFVAGIAPGATTYYADSVKGRFTISRDNAKNTVYLQMNSLNPEDTAVYYCAARYVTESDHDYWGQVTQVTVSS | low polyreactivity
21 | QVQLQESGGGLVHAGGSLRLSCAASGTISFINMMGWYRQAPGRERELVASINFGANTNYADSVKGRFTISRDNAKNTVYLQMNSLKPEYTAVYYCAVYDFDAYSLYYWGQGTLVTVSS | high polyreactivity
22 | QVQLQESGGGLVKAGGSLRLSCAASGSISNSAAMGWYRQAPGKERELVVSIGHGASSNYADSVKGRFTISRDNAKNTVYLQMNSLKPEDTAVYYCAAYPGFLDGFFYWGQSTQVTVSS | high polyreactivity

Row | Sequence | polyreactivity (PSR sort gate)
23 | QVQLQESGGGLVKAGGTPRLSCAASYNIFPDSVMCWYRQAPGTERELVATIGFVATTNYADSVKGRFTISRDNAKNTLYLQMNSLNPEDTAVYYCAAVPLNYEYFCYWGEGTQVTVSS | low polyreactivity
24 | QVQLQESGGGLVLAGGSLRLSCSASGNIYVYGYKGWYRQAPRKEREFVATIDPGTNTNYADSVKDRFSISRDNAKNSVYLQMKSLKPEDNAVYYCAVEAGSDWPYRYWGLGTQVTVSS | low polyreactivity
25 | QVQLQESGGGLVQACGSQRLSCAASGSISEGQDMGRYRRAPRKEREFVAGIAPGATTYYADSVKGRFTISRDNAKNTVYLQMNSLKPEDTAVYYCAARSVTETDHDYWGQGTQVTVSS | low polyreactivity
26 | QVQLQESGGGLVQACSSLRLSCAASGTIFYYIMGWYRQAPGKERELVATIDLGGGTNYADSVKGRFTISRDDAKNTVYLQMSSLKPEDTAEYYCAVYLYRLTFFYYWGQGNQVTVSS | high polyreactivity
27 | QVQLQESGGGLVQADGSLRLSCAASGSIFGYYNMGWYRQAPGKHRELVATINLCRITNYADSVKGRFTISRDNATNTVYVEMHSLNPDDTAVFYCAADEYAQRDLGYWGQGTQVTVSS | low polyreactivity
28 | QVQLQESGGGLVQADGSLRLSCAASGTIFTQSYMGWYRQAPGKEREFVAGISNGTNTNYGDSVKGRFTISRDNAKNTVYLQMNSLKLEDTAVYYCAVKGFYVDVLAYWGQGTHVTVSS | high polyreactivity
29 | QVQLQESGGGLVQAGGDLRLSCAASGNIFRDYIMGWYRQAPGKEREFVAGIDRGANTNYADSVKGRFTISRDNAKNTVYLQMNSLKQEDTAVYYCAVHTAIVPDFIYWGQGTQVTVSS | low polyreactivity
30 | QVQLQESGGGLVQAGGSLCLSCAASGTIIFDGDMGWYRQAPGKEREFVAAINPGGSAYYADSVKGRLPLAAITHTVYLQMNCLKPEDTAVYYCAAKLFDVYGYYYWGQGTHVTVSS | low polyreactivity
31 | QVQLQESGGGLVQAGGSLLSCAASGPISYYREMGWYRQAPGKERELVAGFGVGTITYYADSVKGRFTISRDNAKNTVYLQMNSLKPEVTAVYYCAAHIDGNDSHAYWGQGTQVTVIS | low polyreactivity
32 | QVQLQESGGGLVQAGGSLRLGCAASGNISDAGYMGWYRQAPGKEREFVAAIAAGSNTNYADSVKGRFTISRDNAKNTVYMQLNSLKSEDTGVFYCAVASYDRVQYEYWGQGTQVTVNS | low polyreactivity
33 | QVQLQESGGGLVQAGGSLRLSCAARGNIFLGDTMGWYRQAPGKEREFVAGIARGGNPYYADSVKGRFTISRNNAKNTVYLQKNSLKPVDTAVHYCAVQRSHASDYNYWGQGTQVTVSS | low polyreactivity
34 | QVQLQESGGGLVQAGGSLRLSCAASGNIFGTKSMGWYRQAPGKGREFVAAINDGGSTNYADSVKGRFTIGRDNAKNTVYLQMNSLKPEDTAVYYCAAQWVRSDYHTYWGQGTQVTVSS | high polyreactivity
35 | QVQLQESGGGLVQAGGSLRLSCAASGNISVTGVMGWYRQAPGKERELVASIGIGGTTYYADSVKGRFSISRDNAKNTVYLQMNSLKPEDTAVYYCGARYVYSAYSYWGQGSQVTVSS | low polyreactivity
36 | QVQLQESGGGLVQAGGSLRLSCAASGNIVDADIMGWSRQAPGKERELVASITDGGSTNYADSVKGRFTISRDYAKNTVYLQMNSLKPEDTAVYYCAAIAYPDIPTYIDYDSEYFYWGQGTQVTVSS | low polyreactivity
37 | QVQLQESGGGLVQAGGSLRLSCAASGSIFADVQMGWYRQAPGKELELVASINFRGTTTYYADSVKGRFTISRDNAKNTVYLQMSSLKPEDNAVYYCAVGRSEGGDFAYWGQGTHVTVSS | low polyreactivity
38 | QVQLQESGGGLVQAGGSLRLSCAASGSIFDSTFMGWYRQAPGKERELVAGISYGTITYYADSVKGRFTISRDNAKHRVSAEEQPESGRYRGVLLRGYPAGQLFLACWGQGTQVTESS | high polyreactivity
39 | QVQLQESGGGLVQAGGSLRLSCAASGSIFDTPTMGWYRQAPGKERELVASIAYDDNTYYADSVKGRFTISRYNAKHTVYLQMNSLKPGDTAVYYCAVTDRIYYYFVYWGQGTRVTVSS | high polyreactivity
40 | QVQLQESGGGLVQAGGSLRLSCAASGSIFKVVDMGLYRQAPAKEREFVATIGEGGNTYYADSVKGRFTISRDNAKNTVYLQMHSLKPEDTAVYFYAVVLGTSYRYTYWGQGTQVTVSS | low polyreactivity
41 | QVQLQESGGGLVQAGGSLRLSCAASGSIFLLHIMCWYRQAPGKERESVAAISYGTSTYYADSVNGRFTICRDNAKNTVYLQMNSPKPDDTAVYYCAALFLVSKHHHFWGEGTQVTVSS | low polyreactivity
42 | QVQLQESGGGLVQAGGSLRLSCAASGSIFVSVTMGWYRQAPGKERELVASIGRGSTTNHADSVKGRFTISRDNAKNIVYLLMNSLKPEDTAVYSCAALESYGKYHGYWGQGTQVTVSS | low polyreactivity
43 | QVQLQESGGGLVQAGGSLRLSCAASGSIFVSVTMGWYRQAPGKERELVASIGRGSTTNHADSVKGRFTISRDNAKNIVYLLMNSLKPEDTAVYYCASLESYGKYHGYWGQGTQVTVSS | low polyreactivity
44 | QVQLQESGGGLVQAGGSLRLSCAASGSISAVGAMGWYRQAPGKEREFAASVNWGTNTNYADSVKGRFTISRDNAKTTLYLQMNSLKPEDTAVYYCAADVQITSAGGDYDYWGQGTQVTVSS | low polyreactivity
